Substrate in data set [1]: COc1ncnc2c1ncn2[C@@H]1O[C@H](CO)[C@@H](O)[C@@H]1O
The data set can be described thus: (§1) Kinetic parameter in calf intestine adenosine deaminase.

Substrate in data set [2]: COC[C@H]1O[C@@H](n2cnc3c(O)nc(N)nc32)[C@H](OC)[C@@H]1OC
The description is as §1.

Substrate in data set [3]: Nc1nc(F)nc2c1nnn2C1O[C@H](CO)[C@@H](O)[C@H]1O
The description is as §1.

Substrate in data set [4]: Nc1nc(N)c2ncn([C@@H]3O[C@H](CO)[C@@H](O)[C@H]3O)c2n1
The data set is described as §1.

Substrate in data set [5]: Nc1nc(F)nc2c1ncn2[C@@H]1O[C@H](CO)[C@@H](O)[C@H]1O
The data set is described as §1.

Substrate in data set [6]: Nc1ncnc2c1nnn2[C@H]1C[C@H](O)[C@@H](CO)O1
The description is as §1.

Substrate in data set [7]: COC[C@H]1O[C@@H](n2nnc3c(O)nc(N)nc32)[C@H](OC)[C@@H]1OC
Described as §1.

Substrate in data set [8]: Nc1ncnc2c1nnn2[C@@H]1O[C@H](CO)[C@@H](O)[C@H]1O
The description is as §1.

Substrate in data set [9]: COc1ncnc2c1nnn2[C@@H]1O[C@H](CO)[C@@H](O)[C@H]1O
The description is as §1.

B1: Adenosine deaminase (Bos taurus), P56658 (protein)
chain: MAQTPAFNKPKVELHVHLDGAIKPETILYYGRKRGIALPADTPEELQNIIGMDKPLSLPEFLAKFDYYMPAIAGCREAVKRIAYEFVEMKAKDGVVYVEVRYSPHLLANSKVEPIPWNQAEGDLTPDEVVSLVNQGLQEGERDFGVKVRSILCCMRHQPSWSSEVVELCKKYREQTVVAIDLAGDETIEGSSLFPGHVKAYAEAVKSGVHRTVHAGEVGSANVVKEAVDTLKTERLGHGYHTLEDATLYNRLRQENMHFEVCPWSSYLTGAWKPDTEHPVVRFKNDQVNYSLNTDDPLIFKSTLDTDYQMTKNEMGFTEEEFKRLNINAAKSSFLPEDEKKELLDLLYKAYGMPSPASAEQCL
In general, Km refers to the substrate concentration at which the rate is half of its maximum. B1: the Km turned out to be 50 µM in data set [1]; 42 µM in [2]; 250 µM in data set [3]; 33 µM in data set [4]; 81 µM in data set [5]; 220 µM in [6]. The results for the Km in data set [7], in [8] and in [9] were 22 µM, 250 µM and 140 µM, respectively.

For the origin of these results see ChEMBL document CHEMBL1122375, “Synthesis and biological evaluation of 2-fluoro-8-azaadenosine and related compounds” (J Med Chem, 1983).
